The text below walks through data of patent publication US20260166158A1, “HSP90-BINDING CONJUGATES AND FORMULATIONS THEREOF” (Fusion Pharmaceuticals Inc., priority 2019, published 2026).

In this series the test system is NCI-H460 tumor-bearing mice (lung cancer). Nature of the series: Biodistribution: lutetium accumulation in tumor, plasma and healthy tissues by ICP-MS. In kind it is in vivo. The note with it: for T/K (Tumor/Kidney ratio) / T/L (Tumor/Liver ratio) / T/P (Tumor/Plasma ratio) / Kidney uptake, % ID/g 24 h / Liver uptake, % ID/g 24 h / Plasma, % ID/g 24 h / Tumor uptake, % ID/g, 24 h / % ID/g uptake, H460 tumor, 24 h / % ID/g uptake, Kidney, 24 h / % ID/g uptake, Liver, 24 h / % ID/g uptake, Plasma, 24 h: 24 h; for Kidney uptake, % ID/g 24 h / Liver uptake, % ID/g 24 h / Plasma, % ID/g 24 h / Tumor uptake, % ID/g, 24 h: second table; for % ID/g uptake, H460 tumor, 24 h / % ID/g uptake, H460 tumor, 72 h / % ID/g uptake, Kidney, 24 h / % ID/g uptake, Kidney, 72 h / % ID/g uptake, Liver, 24 h / % ID/g uptake, Liver, 72 h / % ID/g uptake, Plasma, 24 h / % ID/g uptake, Plasma, 72 h: 0.5 mg/kg lutetium conjugate. As to the method:
Lutetium accumulation was measured in tumor, plasma and healthy tissues of NCI-H460 tumor-bearing mice (lung cancer). NCJ-H460 tumor bearing mice were dosed with 0.5 mg/kg of lutetium conjugates. At the time points indicated, mice were sacrificed and tumor, liver, kidneys and plasma were taken. All tissues were analyzed for lutetium content by ICP-MS, and lutetium uptake in % ID/g determined by the following equation: […]
Biodistribution at 24 h and Tumor/Kidney ratio (T/K), Tumor/Liver ratio (T/L), Tumor/Plasma ratio (T/P) are give in the table below.

Take `CCNC(=O)c1nnc(-c2cc(C(C)C)c(O)cc2O)n1-c1ccc(OC2CCN(C(=O)CCNC(=O)[C@@H](CCC(=O)N3CCC(Oc4ccc(-n5c(C(=O)NCC)nnc5-c5cc(C(C)C)c(O)cc5O)cc4)CC3)NC(=O)CCOCCOCCOCCOCCNC(=O)CN3CCN4CCN5CCN(CC3)CC(=O)[O][Lu]([O]C(=O)C4)[O]C(=O)C5)CC2)cc1` [CMP35]: the “T/K (Tumor/Kidney ratio)” value was 0.74; the “T/L (Tumor/Liver ratio)” value was found to be 0.50; the “T/P (Tumor/Plasma ratio)” value is given as 3.97; the “Kidney uptake, % ID/g 24 h” value came to 11.87 % ID/g. Also, the “Liver uptake, % ID/g 24 h” value is given as 17.67 % ID/g; the “Plasma, % ID/g 24 h” value is on record as 2.212 % ID/g; the “Tumor uptake, % ID/g, 24 h” value is on record as 8.776 % ID/g.

As for `CCNC(=O)c1nnc(-c2cc(C(C)C)c(O)cc2O)n1-c1ccc(OC2CCN(C(=O)CCNC(=O)[C@@H](CCC(=O)N3CCC(Oc4ccc(-n5c(C(=O)NCC)nnc5-c5cc(C(C)C)c(O)cc5O)cc4)CC3)NC(=O)CCOCCOCCOCCOCCOCCOCCOCCOCCOCCOCCOCCOCCNC(=O)CN3CCN4CCN5CCN(CC3)CC(=O)[O][Lu]([O]C(=O)C4)[O]C(=O)C5)CC2)cc1` [CMP36], the “T/K (Tumor/Kidney ratio)” value is 0.99; the “T/L (Tumor/Liver ratio)” value was 0.41; the “T/P (Tumor/Plasma ratio)” value is given as 7.34; the “Kidney uptake, % ID/g 24 h” value is given as 3.36 % ID/g. The “Liver uptake, % ID/g 24 h” value is reported as 8.16 % ID/g; the “Plasma, % ID/g 24 h” value was found to be 0.45 % ID/g; the “Tumor uptake, % ID/g, 24 h” value came to 3.32 % ID/g.

Turning to `CCNC(=O)c1nnc(-c2cc(C(C)C)c(O)cc2O)n1-c1ccc(OC2CCN(C(=O)CCOCCOCCOCCOCCNC(=O)CN3CCN4CCN5CCN(CC3)CC(=O)[O][Lu]([O]C(=O)C4)[O]C(=O)C5)CC2)cc1` [CMP39], the “T/K (Tumor/Kidney ratio)” value came out at 3.63; the “T/L (Tumor/Liver ratio)” value is on record as 3.67; the “T/P (Tumor/Plasma ratio)” value was 4.25; the “Kidney uptake, % ID/g 24 h” value is on record as 0.48 % ID/g. Moreover, the “Liver uptake, % ID/g 24 h” value is listed as 0.47 % ID/g; the “Plasma, % ID/g 24 h” value came to 0.41 % ID/g; the “Tumor uptake, % ID/g, 24 h” value is reported as 1.74 % ID/g.

Regarding `CC(C)c1cc(-c2nnc(O)n2-c2ccc(OC3CCN(C(=O)CCOCCOCCOCCOCCNC(=O)CN4CCN5CCN6CCN(CC4)CC(=O)[O][Lu]([O]C(=O)C5)[O]C(=O)C6)CC3)cc2)c(O)cc1O` [CMP40], the “T/K (Tumor/Kidney ratio)” value was 5.08; the “T/L (Tumor/Liver ratio)” value stood at 62.28; the “T/P (Tumor/Plasma ratio)” value turned out to be 29.23; the “Kidney uptake, % ID/g 24 h” value is reported as 0.14 % ID/g. Also, the “Liver uptake, % ID/g 24 h” value is on record as 0.01 % ID/g; the “Plasma, % ID/g 24 h” value came to 0.02 % ID/g; the “Tumor uptake, % ID/g, 24 h” value stood at 0.71 % ID/g.

With `CCNC(=O)c1nnc(-c2cc(C(C)C)c(O)cc2O)n1-c1ccc(OC2CCN(C(=O)CCOCCOCCOCCOCCOCCOCCOCCOCCOCCOCCOCCOCCNC(=O)CN3CCN4CCN5CCN(CC3)CC(=O)[O][Lu]([O]C(=O)C4)[O]C(=O)C5)CC2)cc1` [CMP41], the “T/K (Tumor/Kidney ratio)” value is 5.10; the “T/L (Tumor/Liver ratio)” value was 6.34; the “T/P (Tumor/Plasma ratio)” value was determined as 8.37; the “Kidney uptake, % ID/g 24 h” value was 0.86 % ID/g. In addition, the “Liver uptake, % ID/g 24 h” value amounted to 0.69 % ID/g; the “Plasma, % ID/g 24 h” value is given as 0.52 % ID/g; the “Tumor uptake, % ID/g, 24 h” value turned out to be 4.39 % ID/g.

For `CC(C)c1cc(-c2nnc(O)n2-c2ccc(OC3CCN(C(=O)CCOCCOCCOCCOCCOCCOCCOCCOCCOCCOCCOCCOCCNC(=O)CN4CCN5CCN6CCN(CC4)CC(=O)[O][Lu]([O]C(=O)C5)[O]C(=O)C6)CC3)cc2)c(O)cc1O` [CMP42], the “T/K (Tumor/Kidney ratio)” value is recorded as 2.23; the “T/L (Tumor/Liver ratio)” value was 9.89; the “T/P (Tumor/Plasma ratio)” value is on record as 26.76; the “Kidney uptake, % ID/g 24 h” value was 0.26 % ID/g. Moreover, the “Liver uptake, % ID/g 24 h” value worked out at 0.06 % ID/g; the “Plasma, % ID/g 24 h” value amounted to 0.02 % ID/g; the “Tumor uptake, % ID/g, 24 h” value was found to be 0.57 % ID/g.

On to `CCNC(=O)c1nnc(-c2cc(C(C)C)c(O)cc2O)n1-c1ccc(CN2CCN(C(=O)C[C@H](NC(=O)CCNC(=O)[C@H](CO)NC(=O)[C@H](CO)NC(=O)[C@H](CO)NC(=O)CC[C@H](C(=O)O)N3CCN4CCN5CCN(CC3)CC(=O)[O][Lu]([O]C(=O)C5)[O]C(=O)C4)C(=O)N[C@H](C)C(=O)N3CCN(Cc4ccc(-n5c(C(=O)NCC)nnc5-c5cc(C(C)C)c(O)cc5O)cc4)CC3)CC2)cc1` [CMP44], for which the “T/K (Tumor/Kidney ratio)” value is recorded as 3.28; the “T/L (Tumor/Liver ratio)” value came out at 2.34; the “T/P (Tumor/Plasma ratio)” value is on record as 2.47; the “Kidney uptake, % ID/g 24 h” value is 1.34 % ID/g. The “Liver uptake, % ID/g 24 h” value turned out to be 1.88 % ID/g; the “Plasma, % ID/g 24 h” value was 1.78 % ID/g; the “Tumor uptake, % ID/g, 24 h” value was determined as 4.39 % ID/g.

`CCNC(=O)c1nnc(-c2cc(C(C)C)c(O)cc2O)n1-c1ccc(CN2CCN(C(=O)C[C@H](NC(=O)CCNC(=O)[C@@H](CO)NC(=O)[C@@H](CO)NC(=O)[C@@H](CO)NC(=O)CC[C@H](C(=O)O)N3CCN4CCN5CCN(CC3)CC(=O)[O][Lu]([O]C(=O)C5)[O]C(=O)C4)C(=O)N[C@H](C)C(=O)N3CCN(Cc4ccc(-n5c(C(=O)NCC)nnc5-c5cc(C(C)C)c(O)cc5O)cc4)CC3)CC2)cc1` [CMP48]: the “T/K (Tumor/Kidney ratio)” value was determined as 3.08; the “T/L (Tumor/Liver ratio)” value turned out to be 2.33; the “T/P (Tumor/Plasma ratio)” value is given as 4.87; the “Kidney uptake, % ID/g 24 h” value was 1.50 % ID/g. The “Liver uptake, % ID/g 24 h” value is on record as 1.99 % ID/g; the “Plasma, % ID/g 24 h” value worked out at 0.95 % ID/g; the “Tumor uptake, % ID/g, 24 h” value is listed as 4.64 % ID/g.

As for `CCNC(=O)c1nnc(-c2cc(C(C)C)c(O)cc2O)n1-c1ccc(CN2CCN(C(=O)CC[C@H](NC(=O)CCNC(=O)[C@@H](CCC(=O)O)NC(=O)[C@@H](CCC(=O)O)NC(=O)[C@@H](CCC(=O)O)NC(=O)COCCOCCNC(=O)CC[C@H](C(=O)O)N3CCN4CCN5CCN(CC3)CC(=O)[O][Lu]([O]C(=O)C5)[O]C(=O)C4)C(=O)N3CCN(Cc4ccc(-n5c(C(=O)NCC)nnc5-c5cc(C(C)C)c(O)cc5O)cc4)CC3)CC2)cc1` [T5], the “% ID/g uptake, H460 tumor, 24 h” value is 1.74 % ID/g; the “% ID/g uptake, H460 tumor, 72 h” value was 0.00 % ID/g; the “% ID/g uptake, Kidney, 24 h” value is given as 3.14 % ID/g; the “% ID/g uptake, Kidney, 72 h” value is given as 1.08 % ID/g. For the same compound, the “% ID/g uptake, Liver, 24 h” value worked out at 0.68 % ID/g; the “% ID/g uptake, Liver, 72 h” value was 0.23 % ID/g; the “% ID/g uptake, Plasma, 24 h” value came out at 0.16 % ID/g; the “% ID/g uptake, Plasma, 72 h” value turned out to be 0.01 % ID/g.

`CCNC(=O)c1nnc(-c2cc(C(C)C)c(O)cc2O)n1-c1ccc2c(ccn2CCC2CCN(C(=O)CCNC(=O)[C@@H](CCC(=O)O)NC(=O)[C@@H](CCC(=O)O)NC(=O)[C@@H](CCC(=O)O)NC(=O)COCCOCCNC(=O)[C@H](CCCCNC(=O)CC[C@H](C(=O)O)N3CCN4CCN5CCN(CC3)CC(=O)[O][Lu]([O]C(=O)C5)[O]C(=O)C4)NC(=O)CCCc3ccc(I)cc3)CC2)c1` [T7]: the “% ID/g uptake, H460 tumor, 24 h” value was found to be 7.54 % ID/g; the “% ID/g uptake, H460 tumor, 72 h” value was 4.05 % ID/g; the “% ID/g uptake, Kidney, 24 h” value worked out at 24.70 % ID/g; the “% ID/g uptake, Kidney, 72 h” value was 13.10 % ID/g. Further, the “% ID/g uptake, Liver, 24 h” value is 1.88 % ID/g; the “% ID/g uptake, Liver, 72 h” value is 1.01 % ID/g; the “% ID/g uptake, Plasma, 24 h” value was determined as 4.71 % ID/g; the “% ID/g uptake, Plasma, 72 h” value came to 0.42 % ID/g.
